Tests used:
Assay in all cases: pull-down; purified GST fusion proteins on glutathione agarose incubated with in vitro-translated Flag-AurB for 1 h at room temperature; washed thrice with PBS with 0.1% Tween 20; bound AurB detected by western blot, quantitated with ImageJ and normalized to the GST fusion protein
[1] = molecular target: GST-HPV16 E6 with its C-terminus PDZ binding motif depleted (E6ΔPBM) (human papillomavirus type 16) (UniProt P03126)
[2] = molecular target: T1, GST-HPV16 E6 T140A (human papillomavirus type 16, UniProt P03126 1-158, T140A); conditions: one partner purified
T1 construct: E6 oncoprotein of human papillomavirus type 16 with T140A; source: E. coli, purified on glutathione-conjugated agarose resin

[3] = molecular target: T2, GST-HPV16 E6 S150A (human papillomavirus type 16, UniProt P03126 1-158, S150A); conditions: one partner purified
T2 construct: E6 oncoprotein of human papillomavirus type 16 with S150A; source: E. coli, purified on glutathione-conjugated agarose resin

[4] = molecular target: T3, GST-HPV16 E6 S145A (human papillomavirus type 16, UniProt P03126 1-158, S145A); conditions: one partner purified
T3 construct: E6 oncoprotein of human papillomavirus type 16 with S145A; source: E. coli, purified on glutathione-conjugated agarose resin

[5] = molecular target: T4, GST-HPV16 E6 S89A (human papillomavirus type 16, UniProt P03126 1-158, S89A); conditions: one partner purified
T4 construct: E6 oncoprotein of human papillomavirus type 16 with S89A; source: E. coli, purified on glutathione-conjugated agarose resin

Molecule	fold of bound AurB against E6 wild type [1]	bound AurB, percent of E6 wild type [2]	bound AurB, percent of E6 wild type [3]	bound AurB, percent of E6 wild type [4]	bound AurB, percent of E6 wild type [5]
Flag-tagged Aurora kinase B (from UniProt Q96GD4 1-344) (enzyme)	3 fold	–	–	–	–
Flag-tagged Aurora kinase B (enzyme, Aurora kinase B, human, from pcDNA:Flag-Aurora kinase B; the functional rows use this molecule for that purified protein; also called FL-AurB; Flag-AurB; source: in vitro translated (TNT Coupled Reticulocyte Lysate System, Promega)) MAQKENSYPWPYGRQTAPSGLSTLPQRVLRKEPVTPSALVLMSRSNVQPTAAPGQKVMENSSGTPDILTRHFTIDDFEIGRPLGKGKFGNVYLAREKKSHFIVALKVLFKSQIEKEGVEHQLRREIEIQAHLHHPNILRLYNYFYDRRRIYLILEYAPRGELYKELQKSCTFDEQRTATIMEELADALMYCHGKKVIHRDIKPENLLLGLKGELKIADFGWSVHAPSLRRKTMCGTLDYLPPEMIEGRMHNEKVDLWCIGVLCYELLVGNPPFESASHNETYRRIVKVDLKFPASVPMGAQDLISKLLRHNPSERLPLAQVSAHPWVRANSRRVLPPSALQSVA	–	45%	57%	27%	44%
